Bridge positions count the residues as written; N and C are the ends. Ends that are not written are not given here.
Tests used:
[1] = Dynamic light scattering of particles formed by cyclic peptide samples with siRNA; format: physicochemical; settings: cyclic peptide/RNA mass ratio 4:1, DLS; for Zeta potential: in mV (unit assumed)
Experimental: Utilizing the Malvern Zetasizer Nano ZS (Malvern Nano Particle Sizing Instrument), the particle size (Size), polydispersity index (PDI), and zeta potential (Zeta P) of the particles formed after samples 1-9 encapsulate siRNA at a cyclic peptide/RNA mass ratio of 4:1 were measured by dynamic light scattering (DLS).

[2] = Dynamic light scattering of cyclic peptide/siRNA and cyclic peptide/lipid/siRNA formulations; format: physicochemical; settings: cyclic peptide/RNA 3:1; before and after binding with lipids (DSPC/cholesterol/RNA 2.4/3.1/1), DLS
Description: Sample 5 and 8 were selected and initially mixed in a microfluidic channel at a mass ratio of 3:1 cyclic peptide/RNA to form a particle solution, which was then left to stabilize.
The mass ratio of distearoylphosphatidylcholine (DSPC)/cholesterol/RNA was set at 2.4/3.1/1. DSPC and cholesterol were weighed and dissolved in a certain volume of ethanol solution.
The cyclic peptide/siRNA aqueous solution was mixed with the lipid ethanol solution through a microfluidic channel to form composite particles again, where the final concentration of ethanol was 25%. Dialysis was used to remove the ethanol, and the final lipid/cyclic peptide/nucleic acid composite particles were collected.
Using the Malvern Zetasizer Nano ZS, the particle size and polydispersity index (PDI) before and after binding with lipids (5-L and 8-L) were measured for sample 5 and 8 using dynamic light scattering.

[3] = system: siRNA; experiment: Agarose gel electrophoresis of cyclic peptide/siRNA formulations (encapsulation); format: physicochemical; settings: mass ratio of 4:1 of cyclic peptide/siRNA
Experimental: a. Weigh out 0.5 g of agarose powder and pour it into a conical flask, then add 50 mL of 1×TAE electrophoresis buffer into the flask. Dissolve it completely under heating conditions.
b. After cooling to 65° C., add 5 μL of ethidium bromide, swiftly pour into the gel casting tray, insert the comb, and let it stand at room temperature for 0.5-1 hour until the gel solidifies.
c. Next, remove the comb, pour 1×TAE electrophoresis buffer into the well to submerge the gel.
d. Prepare nine formulations of cyclic peptides with siRNA, using samples 1-9 at mass ratios of 1-4 of sample/siRNA. Mix 2 μL of 6× loading dye with 10 μL of samples, load 10 μL into the wells, and concurrently load 10 μL of DNA Marker and bare siRNA into the wells as controls.
e. Subsequently, run the electrophoresis at […] for 45 minutes, turn off the power supply, remove the gel, and observe and record the electrophoresis image with a UV gel imaging system.

[4] = system: 293T cells; experiment: EGFP mRNA transfection, fluorescence microscopy; format: cell-based, human; settings: 24 hours, S5/mRNA mass ratios 10:1, 12.5:1, 15:1
Description: 1. Sample preparation: Sample 5 (S5) was selected and mixed in a microfluidic channel to form a particle solution at different cyclic peptide/mRNA mass ratios (10:1, 12.5:1, 15:1), and then left to stabilize.
2. Control formulation: A lipid nanoparticle (LNP) control at a ratio of 4-(N,N-dimethylamino) butyric acid (dilinoleyl) methyl ester/DSPC/cholesterol/1,2-dimyristoyl-rac-glycerol-3-methoxypolyethylene glycol 2000=50:10:38.5:1.5 was used and mRNA was encapsulated according to the method described in Embodiment 3.
3. Cell plating: 293T cells were plated in a 24-well plate with 9 wells per cell type, each well containing 1 ml of medium and 1×10^5 cells, grown for 12 hours until adherence.
4. Solution preparation: PBS (control); for each group in 3 ml serum-free medium, 3×20 μl=60 μl of prepared sample was added and mixed well, 1 ml per well. Transfection group (lipo2000); in 1.2 ml serum-free medium, add 30 μl of mRNA at a concentration of 0.1 μg/μl and 3 μl×3=9 μl of lipo2000, mix well, let stand for 5-10 min. Cells were washed, transfection reagent was added at 400 μl per well, topped up with 600 μl DMEM complete medium. […]
5. Photo capture: Fluorescence photo: exposure time 600 ms, exposure magnification 14, exposure brightness +1; white light photo: exposure time 10 ms, exposure magnification 1, exposure brightness +1.

Substance | Polydispersity index [1] | Size [1] [nm] | Zeta potential [1] | PDI [2] | Size [2] [nm] | encapsulation of siRNA (agarose gel electrophoresis) [3] | green fluorescent protein expression intensity versus control LNP group [4]
Ala-Ala-Leu-Ala-Ala-Leu-Ala-Ala-Leu-Cys-Lys-Lys-Lys-Lys-Lys-Cys-Leu-Ala-Ala-Leu-Ala-Ala-Leu-Ala-Ala (AALAALAALCKKKKKCLAALAALAA; disulfide 10-16 (inferred)) [Sample 1] | 0.254 | 159.6 | 7.09 |  |  |  | 
Arg-Asp-Gly-Lys-Lys-Lys-Leu-Lys-Lys-Lys-Leu-Cys-Gln-Leu-Ile-Lys-Gln-Leu-Ile-Lys-Gln-Leu-Ile-Lys-Gln-Leu-Ile-Lys-Ile-Leu-Gln-Cys-Leu-Lys-Lys-Lys-Leu-Lys-Lys-Lys-Gly-Asp-Arg (RDGKKKLKKKLCQLIKQLIKQLIKQLIKILQCLKKKLKKKGDR; disulfide 12-32 (inferred)) [Sample 8] | 0.143 | 29.92 | 16.5 | 0.15 | 31.85 | encapsulate siRNA effectively | 
Arg-Asp-Gly-Lys-Val-Gln-Leu-Lys-Val-Gln-Leu-Cys-Gln-Lys-Lys-Lys-Gln-Lys-Lys-Lys-Gln-Lys-Lys-Lys-Gln-Lys-Lys-Lys-Lys-Lys-Gln-Cys-Leu-Gln-Val-Lys-Leu-Gln-Val-Lys-Gly-Asp-Arg (RDGKVQLKVQLCQKKKQKKKQKKKQKKKKKQCLQVKLQVKGDR; disulfide 12-32 (inferred)) [Sample 9] | 0.169 | 111.3 | 23.0 |  |  | encapsulate siRNA effectively | 
KKMLKKMLCQKKKKKQCLMKKLMKK (cysteine pairing not given here) [Sample 2] | 0.326 | 211.9 | 34.1 |  |  |  | 
Lys-Ala-Met-Leu-Lys-Ala-Met-Leu-Lys-Ala-Met-Leu-Cys-Lys-Lys-Lys-Lys-Lys-Lys-Lys-Lys-Lys-Lys-Lys-Lys-Lys-Lys-Lys-Cys-Leu-Met-Ala-Lys-Leu-Met-Ala-Lys-Leu-Met-Ala-Lys (KAMLKAMLKAMLCKKKKKKKKKKKKKKKCLMAKLMAKLMAK; disulfide 13-29 (inferred)) [Sample 7] | 0.139 | 145.1 | 26.3 |  |  | encapsulate siRNA effectively | 
Lys-Gln-Val-Leu-Lys-Gln-Val-Leu-Cys-Gln-Lys-Lys-Lys-Gln-Lys-Lys-Lys-Gln-Lys-Lys-Lys-Gln-Lys-Lys-Lys-Lys-Lys-Gln-Cys-Leu-Val-Gln-Lys-Leu-Val-Gln-Lys (KQVLKQVLCQKKKQKKKQKKKQKKKKKQCLVQKLVQK; disulfide 9-29 (inferred)) [Sample 6] | 0.355 | 32.58 | 21.2 |  |  |  | 
Lys-Leu-Leu-Lys-Leu-Leu-Lys-Leu-Leu-Lys-Leu-Leu-Cys-Lys-Lys-Lys-Lys-Lys-Cys-Leu-Leu-Lys-Leu-Leu-Lys-Leu-Leu-Lys-Leu-Leu-Lys (KLLKLLKLLKLLCKKKKKCLLKLLKLLKLLK; disulfide 13-19 (inferred)) [Sample 5] | 0.133 | 81.02 |  | 0.176 | 60.17 | encapsulate siRNA effectively | more pronounced green fluorescent protein compared to the control LNP group
Lys-Lys-Leu-Lys-Lys-Leu-Cys-Lys-Lys-Lys-Lys-Lys-Lys-Lys-Lys-Lys-Lys-Lys-Lys-Lys-Lys-Cys-Leu-Lys-Lys-Leu-Lys-Lys (KKLKKLCKKKKKKKKKKKKKKCLKKLKK; disulfide 7-22 (inferred)) [Sample 3] | 0.065 | 299.1 | 21.3 |  |  |  | 
Lys-Lys-Leu-Lys-Lys-Leu-Lys-Lys-Leu-Lys-Lys-Leu-Cys-Ala-Phe-Lys-Ala-Phe-Lys-Ala-Phe-Lys-Ala-Phe-Lys-Phe-Ala-Cys (KKLKKLKKLKKLCAFKAFKAFKAFKFAC; disulfide 13-28 (inferred)) [Sample 4] | 0.542 | 264.5 | 18.6 |  |  | poor encapsulation effects | 

— patent publication US20240409586A1, “CYCLIC POLYPEPTIDE CARRIER FOR EFFICIENT DELIVERY OF NUCLEIC ACID, AND VARIANTS THEREOF” (SUZHOU HEALIRNA BIOTECHNOLOGY CO., LTD., priority 2022, published 2024)
